In experiment [1] the target is ankyrin-G (AnkG) lacking the E35a-encoded peptide, endogenous, Ank3 E35a-/- mouse cerebellum (mouse (endogenous in cerebellum)) (UniProt G5E8K5). In words: co-IP; mouse cerebellum whole tissue lysate (500 μg total protein; WT or Ank3 E35a-/-); anti-AnkG antibody (Santa Cruz sc-12719) on Protein G magnetic beads, overnight at 4°C; washed with NT2 buffer; immunoblot with anti-IP3R1 or anti-Na-K ATPase; normalised to the AnkG 190 kDa isoform. For orientation: In western blotting, separated proteins are transferred to a membrane and probed.

For experiment [2], the target named is FLAG-tagged AnkG UPA-DD domains without the E35a-encoded peptide (mouse). In words: co-IP; N2a cells 48 h after transfection with FLAG-UPA-DD minigene plasmids with or without E35a; Pierce IP lysis buffer; anti-FLAG M2 antibody on Protein G magnetic beads; immunoblot with anti-IP3R1.
Chain of FLAG-tagged AnkG UPA-DD domains without the E35a-encoded peptide (mouse) (G5E8K5 whole entry, the tested form may be a part): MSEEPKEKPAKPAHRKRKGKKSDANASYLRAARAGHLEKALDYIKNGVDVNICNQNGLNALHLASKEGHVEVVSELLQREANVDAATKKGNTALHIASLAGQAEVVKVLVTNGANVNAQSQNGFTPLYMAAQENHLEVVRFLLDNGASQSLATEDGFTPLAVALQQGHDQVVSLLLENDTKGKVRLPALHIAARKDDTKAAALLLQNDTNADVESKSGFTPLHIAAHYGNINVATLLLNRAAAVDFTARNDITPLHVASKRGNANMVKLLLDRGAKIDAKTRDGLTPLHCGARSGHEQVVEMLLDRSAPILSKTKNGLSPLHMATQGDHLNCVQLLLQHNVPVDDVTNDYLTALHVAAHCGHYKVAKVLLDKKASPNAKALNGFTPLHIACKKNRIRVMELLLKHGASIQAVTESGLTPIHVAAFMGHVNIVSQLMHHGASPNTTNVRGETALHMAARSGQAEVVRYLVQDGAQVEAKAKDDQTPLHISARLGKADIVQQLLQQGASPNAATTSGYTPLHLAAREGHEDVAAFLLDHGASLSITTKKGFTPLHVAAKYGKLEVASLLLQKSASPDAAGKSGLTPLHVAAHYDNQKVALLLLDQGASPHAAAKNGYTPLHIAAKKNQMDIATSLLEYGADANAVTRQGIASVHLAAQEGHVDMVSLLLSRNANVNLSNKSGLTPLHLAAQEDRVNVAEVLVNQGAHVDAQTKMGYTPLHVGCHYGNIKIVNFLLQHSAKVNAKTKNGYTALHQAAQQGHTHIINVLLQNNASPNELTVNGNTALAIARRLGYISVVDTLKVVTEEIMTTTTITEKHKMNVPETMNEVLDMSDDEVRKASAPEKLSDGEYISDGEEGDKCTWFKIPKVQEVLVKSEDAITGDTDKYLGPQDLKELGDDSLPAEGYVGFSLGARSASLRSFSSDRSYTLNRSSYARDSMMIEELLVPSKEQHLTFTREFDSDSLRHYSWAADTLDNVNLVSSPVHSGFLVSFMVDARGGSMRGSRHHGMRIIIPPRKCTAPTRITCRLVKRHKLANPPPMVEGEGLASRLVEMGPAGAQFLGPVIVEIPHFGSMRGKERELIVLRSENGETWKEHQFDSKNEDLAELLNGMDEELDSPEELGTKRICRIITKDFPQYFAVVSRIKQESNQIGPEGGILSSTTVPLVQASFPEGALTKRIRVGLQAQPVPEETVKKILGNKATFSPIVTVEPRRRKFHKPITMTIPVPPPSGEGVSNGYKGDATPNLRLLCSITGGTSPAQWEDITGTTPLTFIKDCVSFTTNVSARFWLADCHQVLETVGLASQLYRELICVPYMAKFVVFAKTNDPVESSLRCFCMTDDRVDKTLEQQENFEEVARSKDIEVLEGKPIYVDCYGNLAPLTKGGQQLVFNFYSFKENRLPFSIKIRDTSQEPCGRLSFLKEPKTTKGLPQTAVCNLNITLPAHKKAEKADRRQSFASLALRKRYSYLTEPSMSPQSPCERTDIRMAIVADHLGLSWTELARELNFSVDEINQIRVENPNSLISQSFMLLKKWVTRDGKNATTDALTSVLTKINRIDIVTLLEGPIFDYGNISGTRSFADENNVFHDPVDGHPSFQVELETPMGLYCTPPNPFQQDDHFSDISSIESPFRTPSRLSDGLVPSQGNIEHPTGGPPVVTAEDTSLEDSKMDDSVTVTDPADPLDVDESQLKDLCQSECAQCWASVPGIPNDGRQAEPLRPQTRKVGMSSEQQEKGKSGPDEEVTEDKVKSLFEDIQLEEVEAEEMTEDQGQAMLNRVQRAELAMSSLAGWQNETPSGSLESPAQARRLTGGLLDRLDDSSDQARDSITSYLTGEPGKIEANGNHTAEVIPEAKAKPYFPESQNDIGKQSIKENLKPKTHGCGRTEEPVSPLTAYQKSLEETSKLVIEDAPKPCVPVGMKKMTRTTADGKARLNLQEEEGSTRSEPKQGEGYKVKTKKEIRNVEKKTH

The substance “type 1 inositol trisphosphate receptor (InsP3R1), endogenous, mouse cerebellum (from UniProt P11881 1-2749) (natural protein)” had a percent reduction of co-precipitated InsP3R1 against WT in experiment [1] of 77%.
For the substance “type 1 inositol trisphosphate receptor (InsP3R1), endogenous, N2a cells (from UniProt P11881 1-2749) (natural protein)”, the percent of InsP3R1 pulled down relative to UPA-DD with E35a in experiment [2] was 30%.

Source of the values: publication doi:10.64898/2025.12.12.693948.
